In patent publication US20190125833A1:

How the values were obtained:
Myostatin [1] = biological target: Myostatin (UniProt O14793); test: SPR (Biacore T100), myostatin injected, Langmuir 1:1 model
Myostatin [2] = biological target: Myostatin (UniProt O14793); test: SPR (Biacore T100): Fc fusion captured by anti-human antibody on a CM4 chip, myostatin injected as analyte, Langmuir 1:1 model
Myostatin [3] = biological target: Myostatin (UniProt O14793); test: cell-based or functional assay

Sequence of Myostatin (O14793 267-375 limits assumed): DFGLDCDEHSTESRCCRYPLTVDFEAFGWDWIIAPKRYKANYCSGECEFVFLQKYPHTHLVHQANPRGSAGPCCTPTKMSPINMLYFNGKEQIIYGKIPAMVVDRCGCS
Sequence of Activin Receptor 2B-FC (Fc fusion) (Q13705 19-137): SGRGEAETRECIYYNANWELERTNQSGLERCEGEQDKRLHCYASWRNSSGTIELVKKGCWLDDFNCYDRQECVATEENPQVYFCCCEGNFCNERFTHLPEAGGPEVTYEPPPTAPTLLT

Kd (Myostatin [1])	koff (Myostatin [2])	kon (Myostatin [2])	IC50 of inhibition of myostatin dependent SMAD2/3 activation (luciferase reporter, HEK293, 0.1 nM myostatin) (Myostatin [3])	Substance
2.5 nM	0.00098 s⁻¹	390000 M⁻¹ s⁻¹	–	Activin Receptor 2B-FC (Fc fusion)
–	–	–	0.17 nM	hNOPE (1-620) ECD-FC (Fc fusion)
